The source of these data is paper PMC3305377, “Insights into the structure and activity of prototype foamy virus RNase H”.

This data set addresses PFV PR-RT (protease-reverse transcriptase) (prototype foamy virus, UniProt P14350 1-751). Nature of the data set: fluorescence anisotropy; 10 mM EDTA, no Mg2+; 5 nM substrate; 50 mM Tris/HCl pH 8.0, 80 mM KCl, 10 mM EDTA, 0.5 mM DTT, 25 C. Conditions: protein: recombinant; label: 5'-DY647 on RNA; 24 bp hybrid; RNA template overhangs 5' 5 nt and 3' 11 nt.

B1: 24/40-mer DNA/RNA primer/template (DNA:RNA)
RNA: CUAAUUCCGCUUUCCCCUCUCCUGGUGAUCCUUUCCAUCC
DNA: ATCACCAGGAGAGGGGAAAGCGGA
With B1, the Kd is 9.1 ± 1.7 nM.
